Data on 7 molecules can be found in US20230105029A1 (CHIA TAI TIANQING PHARMACEUTICAL GROUP, published 2023).

One may read the EC50 as the concentration needed to bring the measured effect to its halfway point. For orientation: Kd means the concentration at which binding is half-saturated. As a reminder, the koff is the first-order rate constant of dissociation. Broadly, the kon is a measure of how fast the partners come together. Broadly, the IC50 is the concentration needed to halve the response being measured.

The target in test [1] is T1, human IL4Rα expressed on 293F-IL4Rα cells (human, UniProt P24394 26-825).
T1 construct: whole, on cells; also called cell surface human IL4Rα
Briefly: flow cytometry, 293F-IL4Rα cells. The method, then:
Then, 2×10⁵ cells per well in 96 well-plates were incubated in 100 μL of the anti-IL4Rα antibodies or controls of various concentrations (starting at 80 nM with a 4-fold serial dilution) in FACS buffer for 40 minutes on ice. […] Following an incubation of 40 minutes at 4° C. in dark, cells were washed three times and resuspended in FACS buffer. Fluorescence was measured using a Becton Dickinson FACS Canto II-HTS equipment. Data was analyzed using Graphpad Prism software and EC₅₀ values were reported.
(In general: In flow cytometry, cells or beads pass a laser one at a time.)

Test [2] concerns the target T2, recombinant human IL4Rα-his protein (in house made) (human, UniProt P24394 26-232, limits assumed).
T2 construct: also called Human IL4Ra-his
Briefly: SPR (Biacore), antibody captured, IL4Rα-his flowed. The method, then: Briefly, goat anti-mouse IgG (GE healthcare, Cat #BR100838, Mouse Antibody Capture Kit) was covalently linked to a CMS chip (carboxy methyl dextran coated chip) via primary amines, using a standard amine coupling kit provided by Biacore (GE healthcare, Pittsburgh, Pa., USA). Un-reacted moieties on the biosensor surface were blocked with ethanolamine. Then, purified anti-IL4Rα antibodies of the disclosure at the concentration of 66.67 nM and an anti-IL4Rα benchmark (Dupilumab®, also referred to as BM) at 10 μg/ml, were flowed onto the chip at a flow rate of 10 μL/min. Then, serially diluted recombinant human IL4Rα-his (in house made, amino acid sequence set forth in SEQ ID NO: 57), cynomolgus monkey IL4Rα-his protein (Sino biological inc., Cat #90897—C08H), or marmoset monkey IL4Rα-his protein (Custom made by Sino biological inc., also referred to as cal-IL4Rα-his, amino acid sequence set forth in SEQ ID NO: 58) in HBS EP buffer (provided by Biacore) was flowed onto the chip at a flow rate of 30 μL/min. The antigen-antibody association kinetics was followed for 2 minutes and the dissociation kinetics was followed for 10 minutes. The association and dissociation curves were fit to a 1:1 Langmuir binding model using BIA evaluation software.

For test [3], the target named is T2, recombinant human IL4Rα-his protein (in …). Nature of the test: competitive ELISA, blocks biotin-IL4 binding to coated IL4Rα-his.
For test [4] the target is unchanged. Nature of the test: competitive ELISA, blocks biotin-IL4Rα-his binding to coated Benchmark (competitor). On the technique in general: In an ELISA, binding on a coated surface is turned into a signal by an enzyme label.
Test [5] has the same target. Briefly: capture ELISA: antibody captured on anti-IgG Fc plate, biotin human IL4Rα-his detected. How it is done:
Plates were washed once with wash buffer (PBS+0.05% w/v Tween-20, PBST) and then blocked with 200 μl/well blocking buffer (5% w/v non-fatty milk in PBST) for 2 hours at 37° C. Plates were washed again and incubated with 100 μl/well serially diluted anti-IL4Rα antibodies of the disclosure, the benchmark or negative control hIgG (human immunoglobulin (pH4) for intravenous injection, Hualan Biological Engineering Inc.) (5-fold dilution in 2.5% w/v non-fatty milk in PBST, starting at 66.7 nM) for 40 minutes at 37° C., and then washed 4 times again. Plates containing captured anti-IL4Rα antibodies were incubated with biotin-labeled human IL4Rα-his protein (in house made with SEQ ID NO: 57, 0.14 nM in 2.5% w/v non-fatty milk in PBST, 100 μl/well) for 40 minutes at 37° C., washed 4 times, and incubated with streptavidin conjugated HRP (1:10000 dilution in PBST, Jackson Immuno Research, Cat #016-030-084, 100 μl/well) for 40 minutes at 37° C. After a final wash, plates were incubated with 100 μl/well ELISA substrate TMB (Innoreagents, Cat #TMB-S-002). The reaction was stopped in 10 minutes at 25° C. with 50 μl/well 1M H₂SO₄, and the absorbance was read at 450 nm. Data was analyzed using Graphpad Prism software and EC₅₀ values were reported.

Test [6] shares this target. Briefly: capture ELISA, biotin-IL4Rα-his.
For test [7], the target named is T1, human IL4Rα expressed on 293F-IL4Rα …. Nature of the test: flow cytometry, blocks biotin-IL4 binding to 293F-IL4Rα cells.

B1: mouse antibody C2C1A1A1 (antibody, V domains shown)
VH: EVQLVESGGGLVQPGGSLKLSCAASGFTFSTYGMSWVRQTPDKRLELVATINSNGGSTSYPDSVKGRFTISRDNAKNTLYLQMSSLKSEDTAMFYCARFFRFRNAMDYWGQGTSVTVSS
VL: DIQMTQSPASLSASVGETVTITCRTSENIYSYLAWYQQKQGKSPQFLVYNAKTLAEGVPSRFSGSGSGTQFSLNINSLQSEDFGSYYCQHYYGPPTWTFGGGTKLEIK
notes: Mouse hybridoma mAb; also called Mouse C2C1A1A1
As to B1, the EC50 in test [1] was 0.16 nM; in test [5], 0.0759 nM. Also, in test [2], the dissociation constant (Kd) turned out to be 0.0401 nM. Moreover, in test [2], the koff stood at 1.16e-05 s⁻¹. Besides, the kon in test [2] amounted to 290000 M⁻¹ s⁻¹. For the same molecule, the IC50 was 1.89 nM in test [3] and 0.04 nM in test [4].

B2: chimeric antibody C2C1A1A1 (antibody, human IgG4 S228P, kappa, V domains shown)
VH: EVQLVESGGGLVQPGGSLKLSCAASGFTFSTYGMSWVRQTPDKRLELVATINSNGGSTSYPDSVKGRFTISRDNAKNTLYLQMSSLKSEDTAMFYCARFFRFRNAMDYWGQGTSVTVSS
VL: DIQMTQSPASLSASVGETVTITCRTSENIYSYLAWYQQKQGKSPQFLVYNAKTLAEGVPSRFSGSGSGTQFSLNINSLQSEDFGSYYCQHYYGPPTWTFGGGTKLEIKR
notes: Mouse variable domains on human IgG4/kappa; also called Chimeric C2C1A1A1; chC2C1A1A1
Turning to B2, in test [6], the EC50 was determined as 0.05 nM. The IC50 in test [7] came out at 0.48 nM; in test [3], 3.12 nM; in test [4], 0.17 nM.

B3: mouse antibody C2B2F7B7 (antibody, V domains shown)
VH: EVQLVESGGGLVQPGGSLKLSCAASGFTFSTYGMSWVRQTPDKRLELVATINSNGGSTNYPDSVKGRFTISRDNAKNTLYLQMSSLKSEDTAMYYCARFFRIRNAMDYWGQGTSVTVSS
VL: DIQMTQSPASLSASVGETVTITCRASENIYSYLAWYQQKQGKSPQFLVYNAKTLAEGVPSRFSGSGSGTQFSLKINSLQPEDFGSYYCQHYYGTPTWTFGGGTKLEIK
notes: Mouse hybridoma mAb
On to B3, for which the EC50 in test [1] was 0.18 nM. Moreover, in test [2], the Kd was determined as 0.554 nM, the koff was determined as 0.000139 s⁻¹ and the kon came to 251000 M⁻¹ s⁻¹. Moreover, in test [4], the IC50 is 0.72 nM. Further, in test [5], the EC50 is 0.129 nM.

B4: mouse antibody B1D2F7D3B5 (antibody, V domains shown)
VH: EVKLVESGGGLVKPGGSLKLSCAASGFTFSSYAMSWVRQTPEKRLEWVASISSGDSTYYLDSVKGRFTISRDNAMNILYLQMSSLRSEDTAVYYCERSGGSAPYWGQGTLVSVSA
VL: QIVLTQSPAIMSASPGEMVTISCSASSSVSYMYWYQQKPGSSPKPWIYRTSNLASGVPARFSGSGSGTSYSLTISSMEAEDAATYYCQQYHSFPLTFGAGTKLELK
notes: Mouse hybridoma mAb
Take B4: the midpoint of the response in test [1], the EC50, lay at 0.25 nM. In addition, in test [2], the Kd is 0.623 nM, the koff came out at 0.000266 s⁻¹ and the kon was determined as 427000 M⁻¹ s⁻¹. In test [4], the IC50 amounted to 0.02 nM. Moreover, in test [5], the EC50 was determined as 0.0644 nM.

B5: mouse antibody B9D1D11F8D8 (antibody, V domains shown)
VH: EVKLVESGGGLVKPGGSLKLSCAASGFTFSSYAMSWVRQTPEKRLEWVASISSGDSTYYLDSVKGRFTISRDNARNILYLQVSSLRSEDTAMYYCERSGGSAPYWGQGTLVTVSA
VL: QIVLTQSPAIMSASPGDMVTISCSASSSVNYMYWYQQKPGSSPKPWIYRTSNLASGVPARFSGSGSGTSYSLTISSMEAEDAATYYCQQYHSFPLTFGAGTKLELK
notes: Mouse hybridoma mAb
Consider B5, for which, in test [1], the EC50 was found to be 0.22 nM. Moreover, in test [2], the equilibrium dissociation constant (Kd) is 0.655 nM, the koff came to 0.000274 s⁻¹ and the kon is 418000 M⁻¹ s⁻¹. For the same molecule, the concentration for half-maximal inhibition (IC50) in test [4] was 0.02 nM. Further, in test [5], the EC50 came out at 0.0703 nM.

B6: mouse antibody B8G11F2B7G5E8 (antibody, V domains shown)
VH: EVQLQQSGADLVRPGASVKLSCTASGFNIKDTYMHWVKQRPEQGLEWVGRIDPTNGYTIYASKFQGKATITADTSSNTAYMQLSSLTSGDTAVYHCVSRRPWFAYWGQGTLVTVSA
VL: DILMTQTPLSLPVSLGAQASISCRSSQSIVHSNGNTYLEWYLQKPGQSPKLLIYKVTNRFSGVPDRFSGSGSGTDFTLKISRVEAEDLGIYYCFQGSHVPYTFGGGTKLEIK
notes: Mouse hybridoma mAb; also called Mouse B8G11F2B7G5E8; mAb B8G11F2B7G5E8
With B6, the values for the EC50 in test [6], in test [1] and in test [5] were 0.21 nM, 0.25 nM and 0.0393 nM, respectively. Moreover, the Kd in test [2] came out at 1.49 nM. The off-rate constant (koff) in test [2] was determined as 0.000293 s⁻¹. Further, in test [2], the on-rate (kon) was 197000 M⁻¹ s⁻¹. Moreover, the values for the IC50 in test [7], in test [3] and in test [4] were 0.5 nM, 1.64 nM and 0.02 nM, respectively.

B7: chimeric antibody B8G11F2B7G5E8 (antibody, human IgG4 S228P, kappa, V domains shown)
VH: EVQLQQSGADLVRPGASVKLSCTASGFNIKDTYMHWVKQRPEQGLEWVGRIDPTNGYTIYASKFQGKATITADTSSNTAYMQLSSLTSGDTAVYHCVSRRPWFAYWGQGTLVTVSA
VL: DILMTQTPLSLPVSLGAQASISCRSSQSIVHSNGNTYLEWYLQKPGQSPKLLIYKVTNRFSGVPDRFSGSGSGTDFTLKISRVEAEDLGIYYCFQGSHVPYTFGGGTKLEIKR
notes: Mouse variable domains on human IgG4/kappa; also called Chimeric B8G11F2B7G5E8; chB8G11F2B7G5E8
Take B7: in test [6], the EC50 is 0.32 nM. In addition, the IC50 in test [7] was determined as 0.36 nM; in test [3], 1.82 nM; in test [4] it was 1.52 nM.
